Results as given in US20150306254A1 (REGENTS OF THE UNIVERSITY OF COLORADO A BODY CORPORATE, published 2015).

Columns and labels:
[1] = biological target: T1, recombinant murine C3d (murine, UniProt P01027 996-1303, limits assumed); assay: direct ELISA
T1 construct: domain: C3d; also called mouse C3d
Method: To confirm that the antibodies reacted with C3d and not with a contaminant in the immunogen, the antibodies were tested against the C3d using a sandwich ELISA in which the recombinant C3d was captured with a polyclonal anti-C3d capture antibody (Table 2). To test reactivity of the clones against murine C3d we performed indirect and sandwich ELISAs using recombinant murine C3d. We also performed direct ELISAs to test binding of the antibodies to recombinant human C3d from a second construct, purified human C3d, and to recombinant cynomologous C3d.
To assess reactivity of antibodies against C3d, ELISAs were performed using purified forms of C3 activation fragments from several different sources (see Reagents section above). Direct ELISAs were performed by affixing 30-50 ng of the C3 fragment to the ELISA plate overnight at 4° C. The plates were blocked with 1% bovine serum albumin in PBS for 2 hours at room temperature. Bound antibodies were then detected with HRP-conjugated anti-mouse IgG (MP Biomedicals, Solon, Ohio). Sandwich ELISAs were performed by incubating polyclonal anti-human C3d antibody (Dako USA, Carpinteria, Calif.) to the ELISA plates in order to capture the C3d. Binding of the antibodies to the captured C3d was then detected as above.

[2] = biological target: T2, recombinant human C3d (human, UniProt P01024 996-1303, limits assumed); assay: SPR, recombinant human C3d fixed to a CM5 chip
T2 construct: domain: C3d; also called wild-type C3d; the C3d immunogen
T2 sequence (P01024 996-1303 limits assumed): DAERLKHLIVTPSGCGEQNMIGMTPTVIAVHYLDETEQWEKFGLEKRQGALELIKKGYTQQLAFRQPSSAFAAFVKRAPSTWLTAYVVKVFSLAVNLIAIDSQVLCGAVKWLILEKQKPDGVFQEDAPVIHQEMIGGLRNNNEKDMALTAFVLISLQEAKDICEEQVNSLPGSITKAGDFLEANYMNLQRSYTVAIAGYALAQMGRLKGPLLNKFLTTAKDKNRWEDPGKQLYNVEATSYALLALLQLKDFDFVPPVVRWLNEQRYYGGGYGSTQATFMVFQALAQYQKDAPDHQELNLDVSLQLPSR
Method: FIGS. 12A-12C. […] Surface plasmon resonance was performed using recombinant human C3d fixed to a CM5 chip.
The affinity of clones 3d8b, 3d9, and 3d29 for C3d were tested by surface plasmon resonance (FIG. 12).

[3] = biological target: T3, C3d, source and species not stated; assay: radiolabeled antibody; method and antigen not stated
T3 construct: domain: C3d; also called 3d antigen; target C3d antigen
T3 sequence (P01024 1002-1303): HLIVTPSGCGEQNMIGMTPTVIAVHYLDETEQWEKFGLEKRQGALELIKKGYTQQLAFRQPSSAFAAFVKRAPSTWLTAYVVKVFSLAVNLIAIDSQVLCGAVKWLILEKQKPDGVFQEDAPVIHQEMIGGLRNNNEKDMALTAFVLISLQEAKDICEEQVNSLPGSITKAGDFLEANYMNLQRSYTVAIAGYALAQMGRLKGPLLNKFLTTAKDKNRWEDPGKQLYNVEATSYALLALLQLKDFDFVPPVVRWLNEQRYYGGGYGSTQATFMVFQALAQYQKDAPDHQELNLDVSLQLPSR

T1 sequence (P01027 996-1303 limits assumed): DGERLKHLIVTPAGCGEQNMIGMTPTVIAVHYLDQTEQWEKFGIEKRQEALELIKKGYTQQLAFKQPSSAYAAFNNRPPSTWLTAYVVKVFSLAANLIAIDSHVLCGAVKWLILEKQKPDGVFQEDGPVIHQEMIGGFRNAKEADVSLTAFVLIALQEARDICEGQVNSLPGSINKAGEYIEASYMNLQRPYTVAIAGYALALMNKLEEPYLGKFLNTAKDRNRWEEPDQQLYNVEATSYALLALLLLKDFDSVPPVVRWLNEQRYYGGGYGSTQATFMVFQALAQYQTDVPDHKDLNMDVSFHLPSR

binding result [1]: binds | Kd [2]: 1.06 nM | Kd [3]: 0.43 nM
B1: mouse monoclonal antibody 3d29 (antibody, mouse IgG2a, V domains shown)
VH: EVQLQQSGPVLVKPGASVKMSCKASGYTFTDYYMNWVKQSHGKSLEWIGVINPYNGGTSYNQKFKGKATLTVDKSSRTAYMELNSLTSEDSAVYYCSRGGPYWGQGTTLTVSS
VL: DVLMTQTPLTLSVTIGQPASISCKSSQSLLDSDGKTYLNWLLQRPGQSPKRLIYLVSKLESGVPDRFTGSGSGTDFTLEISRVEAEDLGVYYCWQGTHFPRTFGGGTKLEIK
notes: Mouse IgG2a/c (Group I clone); Also used FITC-labelled, biotinylated, radiolabeled and conjugated to SPIO nanoparticles; also called C3d29; 3d29a
